Laboratory results published in paper PMC4615771.

Legend:
GPBP1 eAT-hook (eAT) [1] = target: T1, GPBP1 eAT-hook (eAT) (Homo sapiens, UniProt D4PHA4 38-80); assay: MST competition
T1 chain: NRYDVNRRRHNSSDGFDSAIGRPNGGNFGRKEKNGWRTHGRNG

GPBP1 eAT-hook (eAT) [2] = target: T1, GPBP1 eAT-hook (eAT); assay: MST
GPBP1 eATmut = target: T2, GPBP1 eATmut (Homo sapiens, UniProt D4PHA4 38-80, R59D); assay: MST
T2 chain: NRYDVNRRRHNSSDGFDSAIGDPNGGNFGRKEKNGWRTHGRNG

PTOV1 eATmut [3] = target: T3, PTOV1 eATmut (Homo sapiens, UniProt Q86YD1 1-43, R20D;R22D); assay: MST
T3 chain: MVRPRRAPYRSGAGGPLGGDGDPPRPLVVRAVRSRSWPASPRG

GPBP1 eAT-hook (eAT) [4] = target: T1, GPBP1 eAT-hook (eAT); assay: MST
PTOV1 eATmut [5] = target: T3, PTOV1 eATmut; assay: EMSA

## AGUUCCAUGAUGUUUUCAAACUCUAUUACCUACAUUAUUUGAAC (structured_RNA) [RNA1]
GPBP1 eAT-hook (eAT) [1]
  apparent K (half saturation): 373 ± 19 nM
GPBP1 eAT-hook (eAT) [2]
  apparent K (half saturation): 378 ± 18 nM

B1: rDNA En (MST) (dsDNA)
DNA 1: TCTTTTTTTTTTTTTTTCTTTTTTCCTCC
DNA 2: GGAGGAAAAAAGAAAAAAAAAAAAAAAGA
GPBP1 eATmut
  binding result: no binding
PTOV1 eATmut [3]
  binding result: no binding
GPBP1 eAT-hook (eAT) [4]
  apparent K (half saturation): 7 ± 1.7 µM

B2: rDNA En (gel shift) (dsDNA)
DNA 1: TGGATCTTTTTTTTTTTTTTTCTTTTTTCCTCCA
DNA 2: TGGAGGAAAAAAGAAAAAAAAAAAAAAAGATCCA
PTOV1 eATmut [5]
  binding result: no binding

## GAGAAACCGUGUAAACAAAACAUAACUGAGAGG (structured_RNA) [RNA2]
GPBP1 eAT-hook (eAT) [2]
  apparent K (half saturation): 938 ± 92 nM
